Molecular target: the molecule itself
Test: native-PAGE/immunoblot of conditioned media of transfected 293T cells; self-association (homodimer)

B1: S100A1 with C-terminal fp2a-cleaved linker tail (2A tail), as cleaved from lead dual-gene and triple-gene constructs (other)
chain: MGSELETAMETLINVFHAHSGKEGDKYKLSKKELKELLQTELSGFLDAQKDVDAVDKVMKELDENGDGEVDFQEYVVLVAALTVACNNFFWENSRAKRAPVKQGSGATNFSLLKQAGDVEENPG
notes: Homodimer seen by native PAGE and immunoblot; also called S100A1 with 2A tail
binding result: binds

From patent US20180360992A1 (PRECIGEN, published 2018)
